Values quoted from earlier work in US20150174267A1, “COMPOSITIONS AND METHODS FOR THE TRANSPORT OF THERAPEUTIC AGENTS” (Angiochem Inc., priority 2009, published 2015).
Where no end group is shown, it is not given here.

Key:
[1] = for efficient transport across the BBB: efficiently = at least as efficiently as Angiopep-6
[2] = test system: liver, lung, kidney, spleen, and muscle cells

| Compound | efficient transport across the BBB [1] | other results |
| --- | --- | --- |
| COc1cc([C@@H]2c3cc4c(cc3[C@@H](O[C@@H]3O[C@@H]5CO[C@@H](C)O[C@H]5[C@H](O)[C@H]3O)[C@H]3COC(=O)[C@H]23)OCO4)cc(OC)c1OP(=O)(O)O [Etoposide phosphate, etoposide phosphate] |  | water solubility compared to etoposide: improved water solubility |
| Angiopep-1: targeting polypeptide of Table 1, SEQ ID NO:67 (TFFYGGCRGKRNNFKTEEY; not fully specified (C-terminus)) | cross the mammalian BBB efficiently |  |
| Angiopep-2: targeting polypeptide of Table 1, SEQ ID NO:97 | cross the mammalian BBB efficiently |  |
| Angiopep-4a: targeting polypeptide of Table 1, SEQ ID NO:108 (RFFYGGSRGKRNNFKTEEY) | cross the mammalian BBB efficiently |  |
| Angiopep-4b: targeting polypeptide of Table 1, SEQ ID NO:109 (RFFYGGSRGKRNNFKTEEY; not fully specified (N-terminus)) | cross the mammalian BBB efficiently |  |
| Angiopep-5: targeting polypeptide of Table 1, SEQ ID NO:110 (RFFYGGSRGKRNNFRTEEY; not fully specified (N-terminus)) | cross the mammalian BBB efficiently |  |
| Angiopep-6: targeting polypeptide of Table 1, SEQ ID NO:111 (TFFYGGSRGKRNNFRTEEY) | cross the mammalian BBB efficiently | transport across the BBB relative to that of Angiopep-1 ([1]; relative to Angiopep-1 (250 nM), in situ brain perfusion assay of US 2009/0016959): 38.5% |
| Angiopep-7: targeting polypeptide of Table 1, SEQ ID NO:112 (TFFYGGSRGRRNNFRTEEY) | does not cross the BBB efficiently | efficient transport into particular cell types [2]: efficiently transported into liver, lung, kidney, spleen, and muscle cells |
